The source of these data is publication PMC5484772.

Bridges are numbered along the chain shown (N, C = ends). Where no end group is shown, it is not given here.

Assay in all cases: SPR; competition in solution, Biacore T200: 796 nM (50 ug/ml) purified DiCo mixed with PfRon2L in serial 1:3 dilutions from 12.5 uM to 5.7 nM, incubated 4 h at room temperature; residual binding of free DiCo read on biotinylated PfRon2L immobilised on a Series S streptavidin chip; buffer control set to 100%
(In SPR one partner is held on a chip, and binding of the other changes the refractive index at the surface.)

Assay [1] deals with PfAMA1 diversity covering variant DiCo1.
Assay [2] deals with PfAMA1 diversity covering variant DiCo2.
The target of assay [3] is PfAMA1 diversity covering variant DiCo3.
The next assay deals with DiCo-Mix.

B1: PfRon2L (peptide)
peptide: DITQQAKDIGAGPVASCFTTRMSPPQQICLNSVVNTALS
modifications: disulfide 17-29 (inferred)
Regarding B1, the PfRon2L concentration at full equilibrium saturation of 796 nM DiCo (in assay [1]; in assay [2]; in assay [3]; with DiCo-Mix) was 12.5 µM in each case. For the same molecule, the PfRon2L concentration for almost full saturation of 796 nM DiCo (in assay [1]; in assay [2]; with DiCo-Mix) was > 1000 nM in each case. For the same molecule, the PfRon2L concentration for equilibrium saturation of 796 nM DiCo in assay [3] was > 10 µM.
